One data set concerns NCI-H292 cells. In words: In vitro anti-proliferative activity, CellTiter-Glo, NCI-H292. Format: cell-based, Human. To be noted: NCI-H292, 72 h. The protocol:
(§1) Test Example 2: In Vitro Anti-Proliferative Activity of the Compounds of the Present Invention on Nci-H292 and Mda-Mb-468 Cells
(§2) To investigate the effect of the compounds of the present invention on inhibiting cell proliferation by detecting the effect of the compounds on cell activity in vitro in tumor cell lines MDA-MB-468 and NCI-H292.
(§3) The tumor cell lines were cultured in a 37° C., no CO2 incubator and a 37° C., 5% CO2 incubator according to the culture conditions shown in Table 8, respectively. The cells were periodically passaged, and cells in a logarithmic growth phase were taken for plating.
(§4) Cells in a logarithmic growth phase were harvested and centrifuged at 1000 rpm for 3 min at room temperature. The supernatant was discarded, and the cells were resuspended in 5 mL of a culture medium. Then, 20 μL of the cell suspension was pipetted and mixed with trypan blue at 1:1 for staining for 3 min to detect cell viability and to count viable cells. The cell density was adjusted to 3000 cells/well. Then, 90 μL of the cell suspension was added to each culture plate well, and a cell-free culture medium was added to blank control wells. The culture plate was incubated overnight in a 37° C., no CO2, and 100% relative humidity incubator and a 37° C., 5% CO2, and 100% relative humidity incubator, respectively.
(§5) Preparation of a 400× compound stock plate: The compound to be tested was gradient diluted with DMSO from the highest to the lowest concentration.
(§6) Preparation of a 10× compound working solution: 78 μL of a cell culture medium was added to a V-bottomed 96-well plate, and 2 μL of the compound solution of each concentration was pipetted from the 400× compound stock plate into the cell culture medium in the 96-well plate. Then, 2 μL of DMSO was added to vehicle control and blank control. […]
(§7) The detection was performed according to the instructions of the Promega CellTiter-Glo Luminescent Cell Viability Assay kit (Promega-G7573). The luminescence signal was detected on the En Vision® Multi-mode Plate Reader (En Vision 2104-10). […]

The nature of data set [1]: Metabolic stability in kidney S9, CD-1 mice. The settings on record: mouse; CD-1 mice kidney S9. Format: in vitro ADME. How it is done:
(§8) Test Example 8: Metabolic Stability of the Compounds of the Present Invention in Kidney S9 from Mice, Rats, Cynomolgus Macaques, and Humans
(§9) To investigate the metabolic stability of the compounds of the present invention in kidney S9 from mice, rats, Cynomolgus macaques, and humans.
(§10) Materials: Kidney S9 from CD-1 mice, SD rats, Cynomolgus macaques, and humans were purchased from BioIVT or XenoTech LLC and stored in a −80° C. refrigerator.
(§11) Experimental procedure: Eight 96-well plates, designated T0, T5, T15, T30, T45, T60, Blank, and NCF60, were prepared. The first six incubation plates corresponded to reaction time points of 0, 5, 15, 30, 45, and 60 minutes, respectively. No test sample or control compound was added to the Blank plate.
(§12) The T0, T5, T15, T30, T45, and T60 plates were added with a 2 μL working solution of the test sample (10 mM of a solution of the compound to be tested in DMSO, diluted to 100 μM with 100% acetonitrile) and 100 μL of a S9 working solution (kidney S9 protein concentration of 1.0 mg/mL), and the Blank plate was only added with the S9 working solution. The above incubation plates were then placed in a 37° C. water bath for pre-incubation for about 10 minutes.
(§13) At the end of the pre-incubation, 98 μL of an auxiliary enzyme working solution was added to each sample well except the TO plate to start the reaction. […]

Data set [2] can be described thus: Metabolic stability in kidney S9, humans. In kind it is in vitro ADME. To be noted: human. How it is done: as §8, §9, §10, §11, §12, §13
Data set [3] in a line: Pharmacokinetic analysis in Cynomolgus macaque plasma. In kind it is in vivo. The settings on record: cynomolgus monkey, Cynomolgus macaques, single IV 1 mg/kg, plasma. The protocol: Test Example 6: Pharmacokinetic Analysis in Cynomolgus Macaque Plasma
To test the pharmacokinetics of the compounds of the present invention in Cynomolgus macaques.
The pharmacokinetic characteristics of the compound after intravenous injection were tested according to a standard protocol in Cynomolgus macaques. The compound to be tested was formulated into a clear solution using 25 mM L-histidine (pH=7) in 10% sucrose as a vehicle. Cynomolgus macaques were given a single intravenous injection of 1 mg/kg of the compound to be tested. Whole blood was collected at time points of 0.083, 0.25, 0.5, 1, 2, 4, 8, and 24 hours after administration to get plasma. The concentration of the compound to be tested and the concentration of its potential metabolite MMAE were analyzed by the LC-MS/MS method, and the pharmacokinetic parameters were calculated by Phoenix WinNonlin software.

A short description of data set [4]: Metabolic stability in kidney S9, SD rats. In kind it is in vitro ADME. The settings on record: Sprague-Dawley (SD), rat. How it is done: as §8, §9, §10, §11, §12, §13
A further data set relates to MDA-MB-468 cells. The data set is described as follows: In vitro anti-proliferative activity, CellTiter-Glo, MDA-MB-468. In kind it is cell-based, Human. The settings on record: MDA-MB-468, 72 h. The protocol:
as §1, §2, §3, §4, §5, §6, §7
(Cellular ATP, detected with luciferase, serves as a proxy for viable cell number.)

Molecules are shown by their SMILES. Where a name gives a salt, the structure may show the parent alone. Starred links: 1 amine or outer side, 2 acyl side, 3 side chain; linkers in the order of their positions; H or OH if unused. Positions of bridges follow the written chain, without caps; N, C: chain ends. Non-standard residues stand in square brackets, D forms with d. Residues, ends and D or L forms follow the SMILES beside them. Chains are numbered I, II in the order given. *: point of attachment. TATA = O=C(CC[*:1])N1CN(C(=O)CC[*:2])CN(C(=O)CC[*:3])C1; Dolaproine = CO[C@@H]([C@@H]1CCCN1)[C@@H](C)C(=O)O; Dil = CC[C@H](C)[C@H](NC)[C@@H](CC(=O)O)OC; 1Nal = N[C@@H](Cc1cccc2ccccc12)C(=O)O; X2 = O=C(CCCC(=O)[*:2])NCCC(=O)[*:1]; PABC = O=C(OCc1ccc(N[*:1])cc1)[*:2]; X1 = C[C@@H](N*)[C@@H](O)c1ccccc1; Hyp = O=C(O)[C@@H]1C[C@@H](O)CN1; hArg = N=C(N)NCCCC[C@H](N)C(=O)O; Cit = NC(=O)NCCC[C@H](N)C(=O)O; Pen = CC(C)(S)[C@H](N)C(=O)O; NMeV = CN[C@H](C(=O)O)C(C)C; Sar = CNCC(=O)O

As to `CC[C@H](C)[C@@H]([C@@H](CC(=O)N1CCC[C@H]1[C@H](OC)[C@@H](C)C(=O)N[C@H](C)[C@@H](O)c1ccccc1)OC)N(C)C(=O)[C@@H](NC(=O)[C@H](C(C)C)N(C)C(=O)OCc1ccc(NC(=O)[C@H](CCCNC(N)=O)NC(=O)[C@@H](NC(=O)CCCC(=O)NCCC(=O)N(C)CC(=O)N(C)CC(=O)N(C)CC(=O)N(C)CC(=O)N(C)CC(=O)N(C)CC(=O)N(C)CC(=O)N(C)CC(=O)N(C)CC(=O)N(C)CC(=O)N[C@H]2CCCCNC(=O)C[C@@H](C(=O)N[C@H]3CSCCC(=O)N4CN5CN(C4)C(=O)CCSC(C)(C)[C@H](NC(=O)[C@@H](CC(=O)O)NC(=O)[C@H](Cc4cccc6ccccc46)NC(=O)[C@@H]4CCCN4C3=O)C(=O)N[C@@H](CCSC)C(=O)N[C@@H](CCCCNC(=N)N)C(=O)N[C@@H](CC(=O)O)C(=O)N[C@@H](Cc3c[nH]c4ccccc34)C(=O)N[C@@H](CO)C(=O)N[C@@H]([C@@H](C)O)C(=O)N3CCC[C@H]3C(=O)N3C[C@H](O)C[C@H]3C(=O)N[C@@H](Cc3c[nH]c4ccccc34)C(=O)N[C@H](C(N)=O)CSCCC5=O)NC(=O)CN(C)C2=O)C(C)C)cc1)C(C)C` [Acetate salt of PDC_2] (I: [Sar][Sar][Sar][Sar][Sar][Sar][Sar][Sar][Sar][Sar]K[Sar]DCP[1Nal][dD][Pen]M[hArg]DWSTP[Hyp]WC-NH2 / II: V[Cit][PABC][NMeV]V[Dil][Dolaproine]-X1; lactam I:11-I:13; linker I:14-I:18-I:28 via TATA; linker I:N-II:N via X2), in the data set on NCI-H292 cells, half-maximal inhibition (IC50) was put at 42.1 nM, the Maximum inhibition rate was determined as 81.32% and the Minimum inhibition rate is recorded as 1.55%. In data set [1], this molecule displayed a half-life at 1 μM above 2.42 h and an intrinsic clearance (microsomal CLint) at 1 μM below 9.6 µL/min/mg. In data set [2], the half-life at 1 μM is above 2.42 h and the microsomal CLint at 1 μM was below 9.6 µL/min/mg. In addition, in data set [3], the AUC(0-t) came to 1 µM·h, the C0 is 3.1 µM, the clearance stood at 3.6 mL/min/kg and the half-life was 1.5 h. The Vd in data set [3] (read-out: Vdss) was determined as 0.2 L/kg. In data set [4], the half-life at 1 μM is above 2.42 h and the microsomal CLint at 1 μM was below 9.6 µL/min/mg. In the data set on MDA-MB-468 cells, the IC50 was 32.3 nM, the Maximum inhibition rate came to 86.28% and the Minimum inhibition rate is recorded as −10.28%.

The IC50 is the concentration that gives 50% inhibition. As usually defined, the half-life is the time in which the quantity being followed falls by half. A low value points to rapid decline. One may read the microsomal CLint as the rate of metabolic loss divided by the concentration. A lower microsomal CLint goes with slow turnover. In general, AUC(0-t) refers to the area under the concentration-time curve up to a stated or last time point. For orientation: clearance means the volume of plasma or blood freed of the substance per unit of time.

(Values after patent US12539335B2, “Tricyclic polypeptide conjugated drug and use thereof” (CONJUSTAR (ZHUHAI) BIOLOGICS CO., LTD., priority 2021, dated 2026).)
